Source: patent US20110008766A1

target: HIV antigen; assay: FRET quenching titration in solution; one value given for outer and inner domain

Binder | Kd
DVD744 (antibody) VH: QIQLVQSGPELKKPGETVKISCKASGYTFTDYSMHWVKQAPGKGLKWMGWIHTETGEPRYVDDFKGRFAFSLETSASTAYLQINNLKNEDTATYFCARDSYYFGSSYYFDYWGQGTTLTVSSASTKGPSVFPLAPQIQLVQSGPELKKPGETVKISCKASGYTFTDYSMHWVKQAPGKGLKWMGWIHTETGEPRYVDDFKGRFAFSLETSASTAYLQINNLKNEDTATYFCARDSYYFGSSYYFDYWGQGTTLTVSS VL: DTVMTQSHKFMSTSVGDRVSITCKASQDVSSAVAWYQQKPGQSPKLLIYSASYRYTGVPDRFTGSGSGMDFTFTISSVQAEDLAVYYCQQHYSTPLTFGAGTKLELERTVAAPSVFIFPPDTVMTQSHKFMSTSVGDRVSITCKASQDVSSAVAWYQQKPGQSPKLLIYSASYRYTGVPDRFTGSGSGMDFTFTISSVQAEDLAVYYCQQHYSTPLTFGAGTKLELER | 0.4 nM
DVD746 (bispecific antibody) VH: QVQLQQSGAELMKPGASVKISCKASGYTFTSYWIEWIKQRPGHGLEWIGEILPGTGSLNNNEKFRDKATFTADTSSNTAYMQLSSLTSEDSAVYYCARGYRYDGWFAYWGQGTLVTVSAASTKGPSVFPLAPEVQLQQSGPELVKPGASMKISCKASDYSFTAYTIHWMKQSHGKNLEWIGLINPYNGGTSYNQKFQGRATLTVDKSSSIAYMELLSLTSEDSAVYYCARRGYDREGHYYAMDYWGQGTSVTVSS VL: DIQMTQSPASLSASVGETVTITCRTSENIYSYLAWYQQKPGKSPHLLVYNTKTLAEGVPSRFSGSGSGTQFSLKINSLQPEDFGSYYCQHHYDSPLTFGSGTKLELKRTVAAPSVFIFPPDIQMTQSPASLAASVGETVTITCRASENIYTFLAWYQQKQGKSPQLLVYTTKTLAEGVPSRFSGSGSGTQFSLKIKSLQPEDFGSYYCQHHYGLPLTFGAGTKLELKR | 0.2 nM
DVD747 (bispecific antibody) VH: QVQLQQSGAELMKPGASVKISCKASGYTFTSYWIEWIKQRPGHGLEWIGEILPGTGSLNNNEKFRDKATFTADTSSNTAYMQLSSLTSEDSAVYYCARGYRYDGWFAYWGQGTLVTVSAASTKGPSVFPLAPASTKGPSVFPLAPEVQLQQSGPELVKPGASMKISCKASDYSFTAYTIHWMKQSHGKNLEWIGLINPYNGGTSYNQKFQGRATLTVDKSSSIAYMELLSLTSEDSAVYYCARRGYDREGHYYAMDYWGQGTSVTVSS VL: DIQMTQSPASLSASVGETVTITCRTSENIYSYLAWYQQKPGKSPHLLVYNTKTLAEGVPSRFSGSGSGTQFSLKINSLQPEDFGSYYCQHHYDSPLTFGSGTKLELKRTVAAPSVFIFPPTVAAPSVFIFPPDIQMTQSPASLAASVGETVTITCRASENIYTFLAWYQQKQGKSPQLLVYTTKTLAEGVPSRFSGSGSGTQFSLKIKSLQPEDFGSYYCQHHYGLPLTFGAGTKLELKR | < 0.06 nM
DVD745 (antibody) VH: QIQLVQSGPELKKPGETVKISCKASGYTFTDYSMHWVKQAPGKGLKWMGWIHTETGEPRYVDDFKGRFAFSLETSASTAYLQINNLKNEDTATYFCARDSYYFGSSYYFDYWGQGTTLTVSSASTKGPQIQLVQSGPELKKPGETVKISCKASGYTFTDYSMHWVKQAPGKGLKWMGWIHTETGEPRYVDDFKGRFAFSLETSASTAYLQINNLKNEDTATYFCARDSYYFGSSYYFDYWGQGTTLTVSS VL: DTVMTQSHKFMSTSVGDRVSITCKASQDVSSAVAWYQQKPGQSPKLLIYSASYRYTGVPDRFTGSGSGMDFTFTISSVQAEDLAVYYCQQHYSTPLTFGAGTKLELERTVAAPDTVMTQSHKFMSTSVGDRVSITCKASQDVSSAVAWYQQKPGQSPKLLIYSASYRYTGVPDRFTGSGSGMDFTFTISSVQAEDLAVYYCQQHYSTPLTFGAGTKLELER | 0.4 nM
DVD748 (bispecific antibody) VH: EVQLQQSGPELVKPGASMKISCKASDYSFTAYTIHWMKQSHGKNLEWIGLINPYNGGTSYNQKFQGRATLTVDKSSSIAYMELLSLTSEDSAVYYCARRGYDREGHYYAMDYWGQGTSVTVSSASTKGPSVFPLAPQVQLQQSGAELMKPGASVKISCKASGYTFTSYWIEWIKQRPGHGLEWIGEILPGTGSLNNNEKFRDKATFTADTSSNTAYMQLSSLTSEDSAVYYCARGYRYDGWFAYWGQGTLVTVSA VL: DIQMTQSPASLAASVGETVTITCRASENIYTFLAWYQQKQGKSPQLLVYTTKTLAEGVPSRFSGSGSGTQFSLKIKSLQPEDFGSYYCQHHYGLPLTFGAGTKLELKRTVAAPSVFIFPPDIQMTQSPASLSASVGETVTITCRTSENIYSYLAWYQQKPGKSPHLLVYNTKTLAEGVPSRFSGSGSGTQFSLKINSLQPEDFGSYYCQHHYDSPLTFGSGTKLELKR | < 0.03 nM

The next lines start with the values.

Kd | Binder
< 0.02 nM | DVD715 (antibody) VH: QVQLQQSGAELMKPGASVKISCKASGYTFTSYWIEWIKQRPGHGLEWIGEILPGTGSLNNNEKFRDKATFTADTSSNTAYMQLSSLTSEDSAVYYCARGYRYDGWFAYWGQGTLVTVSAASTKGPQVQLQQSGAELMKPGASVKISCKASGYTFTSYWIEWIKQRPGHGLEWIGEILPGTGSLNNNEKFRDKATFTADTSSNTAYMQLSSLTSEDSAVYYCARGYRYDGWFAYWGQGTLVTVSA VL: DIQMTQSPASLSASVGETVTITCRTSENIYSYLAWYQQKPGKSPHLLVYNTKTLAEGVPSRFSGSGSGTQFSLKINSLQPEDFGSYYCQHHYDSPLTFGSGTKLELKRTVAAPDIQMTQSPASLSASVGETVTITCRTSENIYSYLAWYQQKPGKSPHLLVYNTKTLAEGVPSRFSGSGSGTQFSLKINSLQPEDFGSYYCQHHYDSPLTFGSGTKLELKR
< 0.02 nM | DVD750 (antibody) VH: EVQLQQSGPELVQPGASMKISCKASGYSFTDYTMNWVKQSHGKNLEWIGLINPYNGGSRYNQKFMAKATLTVDKSSNTAYMELLSVTSEDSAVYYCARDAGYFGSGFYFDYWGQGTTLTVSSASTKGPSVFPLAPEVQLQQSGPELVQPGASMKISCKASGYSFTDYTMNWVKQSHGKNLEWIGLINPYNGGSRYNQKFMAKATLTVDKSSNTAYMELLSVTSEDSAVYYCARDAGYFGSGFYFDYWGQGTTLTVSS VL: DIVMTQSHKFMSTSVGDRVSITCKASQDVSTAVAWYQQKPGQSPKLLIYSASYRSTGVPDRFTGSGSGTDFTFTISSVQAEDLAVYYCQQHYSTPTFGAGTKLELKRTVAAPSVFIFPPDIVMTQSHKFMSTSVGDRVSITCKASQDVSTAVAWYQQKPGQSPKLLIYSASYRSTGVPDRFTGSGSGTDFTFTISSVQAEDLAVYYCQQHYSTPTFGAGTKLELKR
< 0.02 nM | DVD716 (antibody) VH: QVQLQQSGAELMKPGASVKISCKASGYTFTSYWIEWIKQRPGHGLEWIGEILPGTGSLNNNEKFRDKATFTADTSSNTAYMQLSSLTSEDSAVYYCARGYRYDGWFAYWGQGTLVTVSAASTKGPSVFPLAPQVQLQQSGAELMKPGASVKISCKASGYTFTSYWIEWIKQRPGHGLEWIGEILPGTGSLNNNEKFRDKATFTADTSSNTAYMQLSSLTSEDSAVYYCARGYRYDGWFAYWGQGTLVTVSA VL: DIQMTQSPASLSASVGETVTITCRTSENIYSYLAWYQQKPGKSPHLLVYNTKTLAEGVPSRFSGSGSGTQFSLKINSLQPEDFGSYYCQHHYDSPLTFGSGTKLELKRTVAAPSVFIFPPDIQMTQSPASLSASVGETVTITCRTSENIYSYLAWYQQKPGKSPHLLVYNTKTLAEGVPSRFSGSGSGTQFSLKINSLQPEDFGSYYCQHHYDSPLTFGSGTKLELKR
